Measurements published in publication PMC12749359, “Chromosome compartment assembly is essential for subtelomeric gene silencing in trypanosomes” (Nature Communications, 2025).

Columns and labels:
[1] = molecular target: T1, repressor-activator protein 1, His-tagged recombinant (T. brucei, UniProt Q387L4 1-855); experiment: SPR; RAP1-His immobilised on NTA sensor (Nicoya OpenSPR-XT), blocked with 0.5% BSA; PIP5Pase-V5 added at 0.0008, 0.004, 0.008, 0.016 nM; 20 mM HEPES, 150 mM NaCl, 10 mM KCl, 10 mM MgCl2, 10 mM CaCl2, 0.2% NP-40; three replicates; settings: both partners purified
T1 construct: RAP1 of Trypanosoma brucei, recombinant; also called RAP1-His; his-tagged RAP1; source: recombinantly produced in E. coli
T1 sequence (looked up): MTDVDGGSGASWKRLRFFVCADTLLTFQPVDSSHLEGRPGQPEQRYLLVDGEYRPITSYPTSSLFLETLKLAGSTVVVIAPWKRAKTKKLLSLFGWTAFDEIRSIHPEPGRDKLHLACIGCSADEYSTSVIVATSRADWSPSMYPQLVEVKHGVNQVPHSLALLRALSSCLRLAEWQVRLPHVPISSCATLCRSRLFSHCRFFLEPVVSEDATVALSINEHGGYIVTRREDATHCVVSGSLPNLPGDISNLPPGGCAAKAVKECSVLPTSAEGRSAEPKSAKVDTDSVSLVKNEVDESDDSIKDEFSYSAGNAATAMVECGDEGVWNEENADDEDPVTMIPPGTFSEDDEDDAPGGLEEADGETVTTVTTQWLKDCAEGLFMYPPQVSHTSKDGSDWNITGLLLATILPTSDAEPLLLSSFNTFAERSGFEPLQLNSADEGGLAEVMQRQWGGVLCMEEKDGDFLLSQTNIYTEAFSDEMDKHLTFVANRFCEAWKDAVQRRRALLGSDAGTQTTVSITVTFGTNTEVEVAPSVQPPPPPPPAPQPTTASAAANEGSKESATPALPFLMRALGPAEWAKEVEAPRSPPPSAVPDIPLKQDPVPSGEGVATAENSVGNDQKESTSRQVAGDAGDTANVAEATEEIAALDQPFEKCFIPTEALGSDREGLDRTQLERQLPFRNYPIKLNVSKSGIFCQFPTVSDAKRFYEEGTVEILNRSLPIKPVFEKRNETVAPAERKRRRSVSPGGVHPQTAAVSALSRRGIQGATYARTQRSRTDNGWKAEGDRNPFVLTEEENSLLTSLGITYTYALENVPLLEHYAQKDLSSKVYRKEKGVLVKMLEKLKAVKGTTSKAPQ

[2] = molecular target: T2, repressor-activator protein 1, His-tagged recombinant (T. brucei, UniProt Q387L4 1-855); experiment: SPR
T2 chain: T1 sequence (looked up)

[3] = molecular target: T2, repressor-activator protein 1, …; experiment: SPR

B1: phosphatidylinositol phosphate 5-phosphatase, V5-tagged (enzyme, T. brucei, UniProt Q385E2 1-564, looked up)
chain: MRSLLEGITSTLRSAQQHQTGWDPRNATSTGVPTTAQEAFSGGVPAVAQRDLSHVEGPVSSKGGAPMDCITGYSRFSTHSPPDFPFRMLMITQNVGAIGDTAAGAKEGGEEHRRECEKQAGNDELSSDAQKDVREFLSELRLLIFEYSRREYTAHIRVSNTGDDDPSHPSAADIGGQGPPPLIDVIVVHFQEIGGKSFHTEFNNYFANALQELLPEAGWTSGLLMRANDDEDQFTAVGSVVYLSHRMCPISSILSFHHRTFVCVGDDPVTYGSSPTILFHGGKFSGAGESRKGYLLISLRLGTVVVNFLNVHLYNDKKSKEAAAASPSPYALQRQEALLETLAECAAFISPDDPLFIFGDFNTRLDVHNMLQYLKEVENLDVKVSDGDVRAPDSFWELFENPQHMGVIRPYDVEVQRLLDVVAQQSGMELAEFAVRFPPTYLCQSPRDSEEATFQIDTPVHLVNDGEDKRESGTSDRISVVRVLERLSSIPHHPYGRRRVPAWCDRVLWNPPALELMTGRRTSQSVAGSSATAHGGTGVGALRRYVYRSVALRHTDHAAVTLFF
notes: PIP5Pase of Trypanosoma brucei, endogenous allele tagged at the C-terminus (pMOTag3V5) in Lister 427 single-marker cells; also called PIP5Pase; PIP5Pase-V5; source: T. brucei bloodstream forms, endogenously tagged allele, in lysate of DSS cross-linked cells (XLMS, IP); isolated from T. brucei (SPR); not shown: 3xV5 (42 amino acids), C-terminal, kept
- Kd [1]: 2.7 nM
- koff [2]: 0.41 s⁻¹
- Kd [3]: 270 nM
